Measured values from doi:10.1101/439331.
Where two headings read alike, the source gives them in different places. Each block holds one molecule with its values, some of them ahead of it.

What was measured:
[1] = biological target: SCARECROW (SCR)-mCherry translational fusion (SCR:SCR-mCherry) (Arabidopsis) (UniProt Q9M384); assay: Cross-Correlation Number and Brightness
[2] = biological target: SCARECROW (SCR)-mCherry translational fusion (SCR:SCR-mCherry) (Arabidopsis) (UniProt Q9M384); assay: Cross-Correlation Number and Brightness; remark: listed apart in the source
[3] = biological target: T1, SCARECROW (SCR)-GFP translational fusion (SCR:SCR-GFP) (Arabidopsis), Q9M384; assay: Number and Brightness; conditions: remark: other sources report otherwise
T1 chain: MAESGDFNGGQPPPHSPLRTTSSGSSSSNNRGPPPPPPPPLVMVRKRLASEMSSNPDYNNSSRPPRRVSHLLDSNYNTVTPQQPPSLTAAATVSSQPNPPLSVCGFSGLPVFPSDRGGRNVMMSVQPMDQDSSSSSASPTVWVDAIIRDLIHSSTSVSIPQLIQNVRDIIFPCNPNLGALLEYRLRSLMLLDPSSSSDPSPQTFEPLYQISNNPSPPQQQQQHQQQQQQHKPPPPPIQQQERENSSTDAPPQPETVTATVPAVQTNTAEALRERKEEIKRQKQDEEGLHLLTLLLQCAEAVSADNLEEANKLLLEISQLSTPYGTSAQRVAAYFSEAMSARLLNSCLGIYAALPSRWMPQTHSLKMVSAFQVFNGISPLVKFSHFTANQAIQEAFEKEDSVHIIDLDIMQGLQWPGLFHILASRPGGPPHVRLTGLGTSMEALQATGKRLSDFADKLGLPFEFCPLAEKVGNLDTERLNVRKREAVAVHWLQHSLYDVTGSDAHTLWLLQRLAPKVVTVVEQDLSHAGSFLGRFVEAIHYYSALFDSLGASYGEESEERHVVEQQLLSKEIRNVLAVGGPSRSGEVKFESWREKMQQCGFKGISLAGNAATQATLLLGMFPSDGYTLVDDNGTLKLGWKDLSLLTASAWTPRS

[4] = biological target: T1, SCARECROW (SCR)-GFP translational …; assay: Number and Brightness; conditions: remark: other sources report otherwise
[5] = biological target: SHORTROOT (SHR)-GFP translational fusion (SHR:SHR-GFP) (Arabidopsis) (UniProt Q9SZF7); assay: Number and Brightness

percent of SHR-SCR complexes that are 1 SHR: 1 SCR [1]: > 90%
percent of SHR-SCR complexes that are 1 SHR: 2 SCR [1]: 7%
binding score of the 2 SHR: 2 SCR complex [2]: 1
percent of SHR-SCR complexes that are 1 SHR: 1 SCR [2]: > 90%
percent of SHR-SCR complexes that are 1 SHR: 2 SCR [2]: < 5%
percent of SHR-SCR complexes that are 2 SHR: 1 SCR [2]: 7%
percent of SHR-SCR complexes that are 2 SHR: 2 SCR [2]: < 1%
Molecule: SHORTROOT (SHR)-GFP translational fusion (SHR:SHR-GFP) (from UniProt Q9SZF7 1-531) (natural protein)

percent homodimer [3]: 17.3%
stoichiometry N [3]: 2
percent homodimer [4]: 6.6%
B1: SCARECROW (SCR)-GFP translational fusion (SCR:SCR-GFP), Q9M384 1-653 (natural protein)
chain: MAESGDFNGGQPPPHSPLRTTSSGSSSSNNRGPPPPPPPPLVMVRKRLASEMSSNPDYNNSSRPPRRVSHLLDSNYNTVTPQQPPSLTAAATVSSQPNPPLSVCGFSGLPVFPSDRGGRNVMMSVQPMDQDSSSSSASPTVWVDAIIRDLIHSSTSVSIPQLIQNVRDIIFPCNPNLGALLEYRLRSLMLLDPSSSSDPSPQTFEPLYQISNNPSPPQQQQQHQQQQQQHKPPPPPIQQQERENSSTDAPPQPETVTATVPAVQTNTAEALRERKEEIKRQKQDEEGLHLLTLLLQCAEAVSADNLEEANKLLLEISQLSTPYGTSAQRVAAYFSEAMSARLLNSCLGIYAALPSRWMPQTHSLKMVSAFQVFNGISPLVKFSHFTANQAIQEAFEKEDSVHIIDLDIMQGLQWPGLFHILASRPGGPPHVRLTGLGTSMEALQATGKRLSDFADKLGLPFEFCPLAEKVGNLDTERLNVRKREAVAVHWLQHSLYDVTGSDAHTLWLLQRLAPKVVTVVEQDLSHAGSFLGRFVEAIHYYSALFDSLGASYGEESEERHVVEQQLLSKEIRNVLAVGGPSRSGEVKFESWREKMQQCGFKGISLAGNAATQATLLLGMFPSDGYTLVDDNGTLKLGWKDLSLLTASAWTPRS

percent homodimer without m4 (scr4 mutant) [5]: < 1%
B2: SHORTROOT (SHR)-GFP translational fusion (SHR:SHR-GFP) (natural protein)
chain: MDTLFRLVSLQQQQQSDSIITNQSSLSRTSTTTTGSPQTAYHYNFPQNDVVEECFNFFMDEEDLSSSSSHHNHHNHNNPNTYYSPFTTPTQYHPATSSTPSSTAAAAALASPYSSSGHHNDPSAFSIPQTPPSFDFSANAKWADSVLLEAARAFSDKDTARAQQILWTLNELSSPYGDTEQKLASYFLQALFNRMTGSGERCYRTMVTAAATEKTCSFESTRKTVLKFQEVSPWATFGHVAANGAILEAVDGEAKIHIVDISSTFCTQWPTLLEALATRSDDTPHLRLTTVVVANKFVNDQTASHRMMKEIGNRMEKFARLMGVPFKFNIIHHVGDLSEFDLNELDVKPDEVLAINCVGAMHGIASRGSPRDAVISSFRRLRPRIVTVVEEEADLVGEEEGGFDDEFLRGFGECLRWFRVCFESWEESFPRTSNERLMLERAAGRAIVDLVACEPSDSTERRETARKWSRRMRNSGFGAVGYSDEVADDVRALLRRYKEGVWSMVQCPDAAGIFLCWRDQPVVWASAWRPT
